Assay results taken from patent publication US20210171611A1 (SEOUL NATIONAL UNIVERSITY R AND DB FOUNDATION, published 2021).

B1: Ab10 scFv (scFv)
scFv: ELVMTQSPSSLSASVGDTVTITCRASQSIYTYLNWYHQTPGKAPKLLISAASSLQSGVPSRFSGSGSGTDFTLTISSLQPEDFATYYCQQYADVPVTFGGGTKLEIKGGSSRSSSSGGGGSGGGGEVQLVESGGGVVQPGRSLRLSCAASGFTFSGYGIHWVRQAPGKGLEWVALISYDGSNKYYADSVKGRFTISRDNSKNTLYLQMNSLRAEDTAVYYCAKDRDYFGSGFFDYWGQGTLVTVSS
B2: Ab8 scFv (scFv)
scFv: ELALTQPPSVSVAPAMTAKITCGGDDIGSTTVQWYQQTSGQAPVLVVYDDSDRPSGIPERFSGANSGNTATLTISRVEAGDEADYYCQVWDGRSDHVVFGGGTKLTVLGGGSSRSSSSGGGGSGGGGQVQLVQSGAEVKKPGESLKISCKGSGYIFTNYWIGWVRQMPGKGLEWMGIIYPGDSDTRYSPSFQGQVTISADRSISTANLQWSSLKASDTALYYCARLKLRGFSGGYGSGRRYFDYWGQGTLVTVSS
B3: Ab9 scFv (scFv)
scFv: ELELTQPPSVSGTPGKRVSMSCSGSRSNIGGNVVNWYQQLPGKAPKLFIYNNDQRPSGVPDRVSGSKSGTSVSVAISGLQPEDEADYYCAAWDDILNGVVFGGGTQLTVLGGGSSRSSSSGGGGSGGGGQVQLVQSGAEVKKPGESLKISCKGSGYNFTNYWIGWVRQLPGKGLEWMGIIYPGDSDTRYSPSFQGQVTISADKSISTAYLQWSSLKASDTAMYYCARIRVIGFYDSSPPPLFDYWGQGTLVTVSS

Molecular target: T1, recombinant SFTS virus glycoprotein Gn fused to human Ig k-chain constant region (severe fever with thrombocytopenia …, UniProt P01834 1-107)
T1 construct: also called Gn-Ck
Assay: ELISA on recombinant glycoprotein (Gn-Ck coated, Example 5)

Binder | binding result
B1 | binds
B2 | binds
B3 | binds
